Several values for one entry are separate records, joined by “and”; a condition that tells them apart may be missing. Identical values can stand only once.
B1: MSMEG_5739: carboxylate reductase (CAR) from M. smegmatis ATCC 700084 (protein)
chain: MTSDVHDATDGVTETALDDEQSTRRIAELYATDPEFAAAAPLPAVVDAAHKPGLRLAEILQTLFTGYGDRPALGYRARELATDEGGRTVTRLLPRFDTLTYAQVWSRVQAVAAALRHNFAQPIYPGDAVATIGFASPDYLTLDLVCAYLGLVSVPLQHNAPVSRLAPILAEVEPRILTVSAEYLDLAVESVRDVNSVSQLVVFDHHPEVDDHRDALARAREQLAGKGIAVTTLDAIADEGAGLPAEPIYTADHDQRLAMILYTSGSTGAPKGAMYTEAMVARLWTMSFITGDPTPVINVNFMPLNHLGGRIPISTAVQNGGTSYFVPESDMSTLFEDLALVRPTELGLVPRVADMLYQHHLATVDRLVTQGADELTAEKQAGAELREQVLGGRVITGFVSTAPLAAEMRAFLDITLGAHIVDGYGLTETGAVTRDGVIVRPPVIDYKLIDVPELGYFSTDKPYPRGELLVRSQTLTPGYYKRPEVTASVFDRDGYYHTGDVMAETAPDHLVYVDRRNNVLKLAQGEFVAVANLEAVFSGAALVRQIFVYGNSERSFLLAVVVPTPEALEQYDPAALKAALADSLQRTARDAELQSYEVPADFIVETEPFSAANGLLSGVGKLLRPNLKDRYGQRLEQMYADIAATQANQLRELRRAAATQPVIDTLTQAAATILGTGSEVASDAHFTDLGGDSLSALTLSNLLSDFFGFEVPVGTIVNPATNLAQLAQHIEAQRTAGDRRPSFTTVHGADATEIRASELTLDKFIDAETLRAAPGLPKVTTEPRTVLLSGANGWLGRFLTLQWLERLAPVGGTLITIVRGRDDAAARARLTQAYDTDPELSRRFAELADRHLRVVAGDIGDPNLGLTPEIWHRLAAEVDLVVHPAALVNHVLPYRQLFGPNVVGTAEVIKLALTERIKPVTYLSTVSVAMGIPDFEEDGDIRTVSPVRPLDGGYANGYGNSKWAGEVLLREAHDLCGLPVATFRSDMILAHPRYRGQVNVPDMFTRLLLSLLITGVAPRSFYIGDGERPRAHYPGLTVDFVAEAVTTLGAQQREGYVSYDVMNPHDDGISLDVFVDWLIRAGHPIDRVDDYDDWVRRFETALTALPEKRRAQTVLPLLHAFRAPQAPLRGAPEPTEVFHAAVRTAKVGPGDIPHLDEALIDKYIRDLREFGLI
B2: MAP_1040c: carboxylate reductase (CAR) from M. paratuberculosis ATCC BAA-968 (protein)
chain: MSTATHDERLDRRVHELIATDPQFAAAQPDPAITAALEQPGLRLPQIIRTVLDGYADRPALGQRVVEFVTDAKTGRTSAQLLPRFETITYSEVAQRVSALGRALSDDAVHPGDRVCVLGFNSVDYATIDMALGAIGAVSVPLQTSAAISSLQPIVAETEPTLIASSVNQLSDAVQLITGAEQAPTRLVVFDYHPQVDDQREAVQDAAARLSSTGVAVQTLAELLERGKDLPAVAEPPADEDSLALLIYTSGSTGAPKGAMYPQSNVGKMWRRGSKNWFGESAASITLNFMPMSHVMGRSILYGTLGNGGTAYFAARSDLSTLLEDLELVRPTELNFVPRIWETLYGEFQRQVERRLSEAGDAGERRAVEAEVLAEQRQYLLGGRFTFAMTGSAPISPELRNWVESLLEMHLMDGYGSTEAGMVLFDGEIQRPPVIDYKLVDVPDLGYFSTDRPHPRGELLLRTENMFPGYYKRAETTAGVFDEDGYYRTGDVFAEIAPDRLVYVDRRNNVLKLAQGEFVTLAKLEAVFGNSPLIRQIYVYGNSAQPYLLAVVVPTEEALASGDPETLKPKIADSLQQVAKEAGLQSYEVPRDFIIETTPFSLENGLLTGIRKLAWPKLKQHYGERLEQMYADLAAGQANELAELRRNGAQAPVLQTVSRAAGAMLGSAASDLSPDAHFTDLGGDSLSALTFGNLLREIFDVDVPVGVIVSPANDLAAIASYIEAERQGSKRPTFASVHGRDATVVRAADLTLDKFLDAETLAAAPNLPKPATEVRTVLLTGATGFLGRYLALEWLERMDMVDGKVIALVRARSDEEARARLDKTFDSGDPKLLAHYQQLAADHLEVIAGDKGEANLGLGQDVWQRLADTVDVIVDPAALVNHVLPYSELFGPNALGTAELIRLALTSKQKPYTYVSTIGVGDQIEPGKFVENADIRQMSATRAINDSYANGYGNSKWAGEVLLREAHDLCGLPVAVFRCDMILADTTYAGQLNLPDMFTRLMLSLVATGIAPGSFYELDADGNRQRAHYDGLPVEFIAAAISTLGSQITDSDTGFQTYHVMNPYDDGVGLDEYVDWLVDAGYSIERIADYSEWLRRFETSLRALPDRQRQYSLLPLLHNYRTPEKPINGSIAPTDVFRAAVQEAKIGPDKDIPHVSPPVIVKYITDLQLLGLL
B3: MSMEG_2956: carboxylate reductase (CAR) from M. smegmatis ATCC 700084 (protein)
chain: MTIETREDRFNRRIDHLFETDPQFAAARPDEAISAAAADPELRLPAAVKQILAGYADRPALGKRAVEFVTDEEGRTTAKLLPRFDTITYRQLAGRIQAVTNAWHNHPVNAGDRVAILGFTSVDYTTIDIALLELGAVSVPLQTSAPVAQLQPIVAETEPKVIASSVDFLADAVALVESGPAPSRLVVFDYSHEVDDQREAFEAAKGKLAGTGVVVETITDALDRGRSLADAPLYVPDEADPLTLLIYTSGSTGTPKGAMYPESKTATMWQAGSKARWDETLGVMPSITLNFMPMSHVMGRGILCSTLASGGTAYFAARSDLSTFLEDLALVRPTQLNFVPRIWDMLFQEYQSRLDNRRAEGSEDRAEAAVLEEVRTQLLGGRFVSALTGSAPISAEMKSWVEDLLDMHLLEGYGSTEAGAVFIDGQIQRPPVIDYKLVDVPDLGYFATDRPYPRGELLVKSEQMFPGYYKRPEITAEMFDEDGYYRTGDIVAELGPDHLEYLDRRNNVLKLSQGEFVTVSKLEAVFGDSPLVRQIYVYGNSARSYLLAVVVPTEEALSRWDGDELKSRISDSLQDAARAAGLQSYEIPRDFLVETTPFTLENGLLTGIRKLARPKLKAHYGERLEQLYTDLAEGQANELRELRRNGADRPVVETVSRAAVALLGASVTDLRSDAHFTDLGGDSLSALSFSNLLHEIFDVDVPVGVIVSPATDLAGVAAYIEGELRGSKRPTYASVHGRDATEVRARDLALGKFIDAKTLSAAPGLPRSGTEIRTVLLTGATGFLGRYLALEWLERMDLVDGKVICLVRARSDDEARARLDATFDTGDATLLEHYRALAADHLEVIAGDKGEADLGLDHDTWQRLADTVDLIVDPAALVNHVLPYSQMFGPNALGTAELIRIALTTTIKPYVYVSTIGVGQGISPEAFVEDADIREISATRRVDDSYANGYGNSKWAGEVLLREAHDWCGLPVSVFRCDMILADTTYSGQLNLPDMFTRLMLSLVATGIAPGSFYELDADGNRQRAHYDGLPVEFIAEAISTIGSQVTDGFETFHVMNPYDDGIGLDEYVDWLIEAGYPVHRVDDYATWLSRFETALRALPERQRQASLLPLLHNYQQPSPPVCGAMAPTDRFRAAVQDAKIGPDKDIPHVTADVIVKYISNLQMLGLL

Experiments:
[1] = In vitro biotransformation by CARs coupled with aldehyde reductase PP_3370; format: biochemical; details: Table 12 title: 10 mM 4-hydroxybutyric acid (12 h) in vitro, CARs coupled with PP3370
[2] = In vivo whole cell biotransformation by E. coli expressing CARs; format: cell-based; details: 24 h; for In vivo conversion efficiency (%) to: 1,4-butanediol: 10 mM 4-hydroxybutyric acid; for In vivo conversion efficiency (%) to: 1,6-hexanediol / In vivo conversion efficiency (%) to: 6-hydroxyhexanoic acid: 10 mM adipic acid
Method: E. coli cells expressing recombinant CARs with BSU03570 phosphopantetheinyl transferase were grown on LB media with […], supplemented with 2% glycerol aerobically on 37° C., until the culture optical density (OD 600 nm) reached 0.6-0.8. At this point protein expression was induced with 0.4 mM IPTG and substrate (adipic acid or 4-hydroxybutyric acid) for final 10 mM concentration was added. Samples were taken at 6 h, 24 h and 48 h, centrifuged, supernatant was filtered through 10 kDa centrifugal filters. Products were analyzed with HPLC or LC-MS. Negative control experiments were performed using E. coli cells harboring empty plasmids. All results of in vivo experiments are means from at least two independent determinations.

[3] = In vitro biotransformation by CARs coupled with aldehyde reductase PP_3370; format: biochemical; details: Table 12 title: 10 mM adipic acid (12 h) in vitro, CARs coupled with PP3370
[4] = CAR reductase activity, NADPH oxidation at 340 nm; format: biochemical; details: ND = no activity was detected
Method: Reductase activity was measured spectrophotometrically by following the oxidation of NADPH depletion at 340 nm.
It has been shown that the N. iowensis CAR has a broad substrate range, though its maximal activity was usually observed with aromatic substrates such as benzoic and cinnamic acids. CARs gene sequences homologues to the N. iowensis CAR (Uniprot number: Q6RKB1), were selected from GenBank database. Based on presence of adenylation (AMP-binding PF00501) and reduction (NAD-binding PF07993) domains accompanied with phosphopantetheinyl binding motif (PF00530) 13 CAR genes (mostly from Mycobacterium) were cloned and expressed in E. coli. (Table 4). As CAR activation enzymes, phosphopantetheinyl transferases (PPTs) from E. coli (P19925) and Bacillus subtilis (P39135), were used which were co-expressed with the selected CAR genes from a separate plasmid. Using 1-liter E. coli cultures with overnight induction by IPTG, 12 soluble CAR proteins were purified using affinity chromatography on a Ni-NTA resin.

Row | Molecule | In vivo conversion efficiency (%) to: 1,4-butanediol [1] [%] | In vivo conversion efficiency (%) to: 1,4-butanediol [2] [%] | In vivo conversion efficiency (%) to: 1,6-hexanediol [2] | In vivo conversion efficiency (%) to: 6-hydroxyhexanoic acid [2] | In vitro conversion efficiency % to: 1,6-hexanediol [3] [%] | In vitro conversion efficiency % to: 6-hydroxyhexanoic acid [3] [%] | Activity [U/mg protein] 4-hydroxybutyric acid, 5 mM [4] [U/mg protein] | Activity [U/mg protein] adipic acid, 5 mM [4] [U/mg protein]
1 | B1 | 86.1 ± 5.2 | 86.1±5.2 | 53.8±1.4% and 57.2 ± 0.6% | 9.1% and 9.1 ± 0.7% | 57.2 ± 0.6 | 9.1 ± 0.7 | 0.032 ± 0.024 | 0.054 ± 0.004
2 | B2 | 81.6 ± 18.3 | 81.6 ± 18.3 | 15.4 ± 1.7% | 5.8 ± 0.2% | 15.4 ± 1.7 | 5.8 ± 0.2 | 0.014 ± 0.006 | 0.053 ± 0.006
3 | B3 | 59.4 ± 7.3 | 59.4 ± 7.3 | 27.7 ± 10.3% | 34.2 ± 9.1% | 27.7 ± 10.3 | 34.2 ± 9.1 | – | 0.078 ± 0.001

From patent US12371675B2, “Process and microorganism for synthesis of adipic acid from carboxylic acids” (THE GOVERNING COUNCIL OF THE UNIVERSITY OF TORONTO, priority 2015, dated 2025)
